Target: Hemoglobin A0 (HbA0) (UniProt P69905;P68871 P69905:2-142,P68871:2-147)
Experiment: SPR; Biacore T200, HBS-P + 1 mM MgCl2 pH 7.4; method of Kd not explicitly stated
Conditions: tags: none; denatured

Chain of Hemoglobin A0 (HbA0) (P69905 2-142, chain 1 of 2): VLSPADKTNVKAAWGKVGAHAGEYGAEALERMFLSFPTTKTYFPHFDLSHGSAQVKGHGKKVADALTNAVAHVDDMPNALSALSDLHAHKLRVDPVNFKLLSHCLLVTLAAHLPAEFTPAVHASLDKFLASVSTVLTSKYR
Chain of Hemoglobin A0 (HbA0) (P68871 2-147, chain 2 of 2): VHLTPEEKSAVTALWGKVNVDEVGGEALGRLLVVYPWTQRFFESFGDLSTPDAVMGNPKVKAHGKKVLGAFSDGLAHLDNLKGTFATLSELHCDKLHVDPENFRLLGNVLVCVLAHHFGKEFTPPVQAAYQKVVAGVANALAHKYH

B1: RNA aptamer A (ssRNA)
RNA: GGGAUAGGAUCCACAUCUACGUAUUACGGCAUUAUUAGGACCAAUGCUGAGUACGGCGCACAGCUUUUUUCACUGCAGACUUGACGAAGCUUAAAAAAAAAAAAAAAAAA
modifications: 2'-F at A and U
  Kd: 160 nM
